“Also recorded” adds a separate entry of the source.
B1: rhGas6: recombinant human Gas6, Axl ligand (protein, listed as Homo sapiens)
chain: MAPSLSPGPAALRRAPQLLLLLLAAECALAALLPAREATQFLRPRQRRAFQVFEEAKQGHLERECVEELCSREEAREVFENDPETDYFYPRYLDCINKYGSPYTKNSGFATCVQNLPDQCTPNPCDRKGTQACQDLMGNFFCLCKAGWGGRLCDKDVNECSQENGGCLQICHNKPGSFHCSCHSGFELSSDGRTCQDIDECADSEACGEARCKNLPGSYSCLCDEGFAYSSQEKACRDVDECLQGRCEQVCVNSPGSYTCHCDGRGGLKLSQDMDTCEDILPCVPFSVAKSVKSLYLGRMFSGTPVIRLRFKRLQPTRLVAEFDFRTFDPEGILLFAGGHQDSTWIVLALRAGRLELQLRYNGVGRVTSSGPVINHGMWQTISVEELARNLVIKVNRDAVMKIAVAGDLFQPERGLYHLNLTVGGIPFHEKDLVQPINPRLDGCMRSWNWLNGEDTTIQETVKVNTRMQCFSVTERGSFYPGSGFAFYSLDYMRTPLDVGTESTWEVEVVAHIRPAADTGVLFALWAPDLRAVPLSVALVDYHSTKKLKKQLVVLAVEHTALALMEIKVCDGQEHVVTVSLRDGEATLEVDGTRGQSEVSAAQLQERLAVLERHLRSPVLTFAGGLPDVPVTSAPVTAFYRGCMTLEVNRRLLDLDEAAYKHSDITAHSCPPVEPAAA
modifications: (1)..(678) Homo sapiens Gas6
B2: H2L1: humanised variant of 10G5; presumably VH GH2 (SEQ ID NO: 2) with VL GL1 (SEQ ID NO: 3) (antibody, V domains shown)
VH: EVQLVESGGGLVQPGGSLRLSCAASGYSFTDFYINWVRQAPGKGLEWVARIFPGGDNTYYNEKFKGRFTLSADTSKSTAYLQMNSLRAEDTAVYYCARRGLYYAMDYWGQGTLVTVSS
VL: DIQMTQSPSSLSASVGDRVTITCRSSQSLVHSNGIPYLHWYQQKPGKAPKLLIYRVSNRFSGVPSRFSGSGSGTDFTLTISSLQPEDFATYYCSQGTHVPPTFGQGTKVEIK
modifications: hu10G5 VH(GH2); hu10G5 VL(GL1)

How the values were obtained:
[1] = system: Axl-dependent phosphorylation of Akt in LX2 cells; test: Axl-dependent AKT activation (pAkt Ser473 Western blot) in LX2 cells; format: cell-based, human
Procedure: Activation of Axl by Gas6 or cross-linking antibodies leads to phosphorylation of Akt.
Effect of Axl blocking antibodies in blocking Axl-dependent AKT activation in LX2 cells: • Cells were seeded in 12-well/plate (2×10^5 cells/well) in DMEM/10% FBS and allowed to attach and grow for >24 h. […] Axl activation was read out via phosphorylation of Akt on serine 473 (Western blot).
Protein Analysis: • Cells were lysed in RIPA buffer (150 mM NaCl, 1.0% IGEPAL® CA-630, 0.5% sodium deoxycholate, 0.1% SDS, 50 mM Tris, pH 8.0., SIGMA-ALDRICH) supplemented with antiproteases and anti-phosphatases (PMSF, sodium orthovanadate, protease inhibitor cocktail, and sodium fluoride), adjusted to 1× Laemmli loading buffer, sonicated, and centrifuged. 20-30 μl of the samples were subjected to 8% sodium dodecyl sulphate-polyacrylamide gel electrophoresis and then transferred to nitrocellulose membranes. Membranes were blocked in 5% BSA-FAF and washed in TBS Tween buffer and then developed with Pierce-ECL western blotting Substrate. • The antibodies used were p-AKT (p-Akt1/2/3 (C-11)), 1:200 in 5% BSA/TBS-T, o/n at 4° C.; AKT (1:200), followed by anti-mouse m-IgGκ BP-HRP (1:2000, 1 h, RT); anti-AKT (Akt1/2/3 (H-136)), 1:400, 1 h, RT followed by anti-rabbit-IgG-HRP (1:20000, 1 h, RT).
Activation of Axl is often achieved by treating Axl with its ligand, Gas6. […]

[2] = system: Axl autophosphorylation (Tyrosine 866) in HeLa cells; test: Phospho-Axl (Y866) ELISA on HeLa cell lysates; format: cell-based, human
Procedure: To assess the level to which various Axl inhibitors reduce activation of Axl, as assessed through on of inhibition of Tyrosine 866 (Y866), one of Axl's known autophosphorylation sites (others include Y779 and Y821—see Oncotarget. 2014 October; 5(20): 9546-9563; doi: 10.18632/oncotarget.2542 and references cited therein).
Lysate Preparation • 1. Seed out HeLa cells in 14 10-cm dishes • a. 3 million cells per dish • 2. Incubate cells until attached • 3. Remove medium and wash cells with PBS • 4. Serum-starve the cells in 0.5% FBS media • a. 0.5% MEM for HeLa • b. O/N, at least 24 hour starvation • 5. Incubate cells with anti-Axl antibodies for 1 hour in 6 ml fresh 0.5% MEM. • a. BGB324 (CAS=1037624-75-1, UNII=0ICW2LX8AS): 0.2 uM • b. H2L1-Evitra*: 50 ug/ml • c. H2L1-Catalent*: 50 ug/ml • d. YW327.6S2: 50 ug/ml • *same sequence, different preparation • 6. Stimulate designated plates with 0.01 ug/ml rhGas6 in 6 ml of total media per 10-cm dish. • a. rhGas6 stimulation 0.01 ug/ml • 7. Set-up: Make each in 26 ml of 0.5% MEM • #1. Starvation • #2. rhGas6 stimulation (0.01 ug/ml) • #3. rhGas6 stimulation+pre-incubation with BGB324 0.2 uM • #4. rhGas6 stimulation+pre-incubation with H2L1-Evitra: 50 ug/ml • #5. rhGas6 stimulation+pre-incubation with H2L1-Catalent: 50 ug/ml • #6. rhGas6 stimulation+pre-incubation with YW327.6S2 50 ug/ml • #7. BGB324 0.2 uM alone • #8. H2L1-Evitra: 50 ug/ml alone • #9. H2L1-Catalent: 50 ug/ml alone • #10. YW327.6S2 50 ug/ml alone • 8. Stop reaction by lysing cells on ice • 9. Wash with cold PBS • 10. Add RIPA buffer (plus phosphatase inhibitors) • a. 100 ul/dish • 11. Scrape cells from dish • 12. Incubate 5-10 min on ice • 13. Spin down 13,000 rpm 5-10 min (cold) • 14. Supernatant transferred to fresh tube • 15. Measure phospho-protein by ELISA […]
Materials • Nunc MaxiSorp 96C plates • Tris-buffered saline (TBS) pH7.6 • Tween 20 (Sigma) • Wash buffer (TBS+0.05% Tween 20) • Fetal bovine serum (FBS) (Sigma) • Monoclonal mouse anti-HsAxl antibody 5F11, 3.6 mg/ml stock (BerGenBio). • Polyclonal rabbit anti-Hs-phospho-Y866 Axl antibody pAxl-Y866-16, 1.0 mg/ml (BerGenBio). […] For HeLa cells total protein concentration 1.5 mg/ml gives a strong signal. • Microplate reader with 450 nm absorbance. Absorbance at 595 nm (if available) should be subtracted to reduce background, but the effect is marginal. […]
Develop • Prepare fresh substrate solution: • 100 μl 10 mg/ml TMB stock solution • 10 μl 30% Hydrogen peroxide solution • 9.9 ml 100 mM Sodium acetate pH6 • Optional: test a small volume of the substrate solution by adding 1 μl leftover HRP-conjugated detection antibody mixture (step 12). […] Read plate on microplate reader with absorbance of 450 nm.

[3] = system: A549 tumours; test: A549 human NSCLC xenograft in mice (Examples 14, 16, 17, 18); format: in vivo, mouse; settings: SCID mice, 30 mg/kg i.p. twice weekly, after two weeks of treatment, versus control (SYNAGIS)
Source text: SCID mice were implanted subcutaneously (s.c.) into the flank with 5×10^6 A549 cells resuspended in serum-free medium/Matrigel (1:1).

[4] = target: T1, Hs-Axl-Fc (immobilized Axl-Fc) (Homo sapiens, UniProt P30530); test: Biacore binding competition assays, two injections (Example 22); settings: Gas6 10 μg/mL as first protein
T1 construct: Fc
Source text: Sensor chip with immobilised Axl: Hs-Axl-Fc (638.2 RU), Mm-Axl-Fc (334.5 RU), Rhe-Axl-Fc (350.2 RU)
In this experiment, a first antibody was allowed to bind to saturation. A second antibody was then applied and its ability to bind was monitored.
If the second antibody recognizes the same (or overlapping) epitope as the first antibody then binding will be blocked. If the second antibody recognizes a different epitope then binding will be detected at the same level as if no first antibody was present.
The ability of Gas6 to block antibody binding was also tested, using Gas6 at 10 μg/mL in HBS-EP.
All tests were performed in parallel on Hs-Axl-Fc, Mm-Axl-Fc and Rhe-Axl-Fc surfaces.
See FIG. 1 for a list of the pairs that were tested (in this list Contr-1 is incorrectly labeled YW367 instead of YW327.6S2var). All antibodies were at 25 μg/mL in HBS-EP.
• 2. Perform Biacore experiments at 25° C. • 3. In the instrument control software choose Direct Binding, and select settings for two injections as shown below. • 4. […] Store the template & the result file, start the analysis.

[5] = target: T2, human Axl (rhAxl-Fc chimera) (Homo sapiens, UniProt P30530); test: Biacore kinetic analysis (surface plasmon resonance) on immobilised rhAxl-Fc; format: binding
T2 construct: Soluble recombinant antigens corresponding to the extracellular domains of members of the human TAM receptor family; Fc; purchased R&D Systems 154-AL
Procedure: Kinetic analysis of murine MAb 10G5 interacting with rhAxl immobilized on the surface of the Biacore sensor chip. Overlay plots of sensograms for different antibody concentrations (0.3-166.7 nM for murine 10G5) are shown. The precise kinetic analysis was performed using BIA evaluation software and curve fitting according to 1:1 Langmuir binding model. […]
Affinity determination of anti-Axl antibody 10G5 was performed at 25° C. by surface plasmon resonance measurements using Biacore 3000 instrument (GE Healthcare). As a solid antigen-coated surface, a sensor chip CM5 with immobilized rhAxl-Fc chimera (R&D Systems, Cat. no. 154-AL) at density 190 RU was used.
For the kinetics measurements, different concentrations of anti-Axl antibodies (from 0.3 to 666.7 nM) in HBS-EP buffer (Biacore, Cat. no. BR-1001-88) were injected at flow rate of 30 μL/min with 3 min injection time followed by 5 min dissociation (buffer alone). After each cycle, the surface was regenerated by 30 sec injection of a regeneration solution (10 mM HCl, 1 M NaCl) at flow rate 50 μL/min.
The kinetic association (on-rate, kon) and dissociation (off-rate, koff) rates were calculated using BIAevaluation software and 1:1 Langmuir binding model. The equilibrium dissociation constant (KD) was calculated as the koff/kon ratio. The half-life (t1/2) of the formed antibody-antigen complexes was calculated as the ln 2/koff ratio. […]

[6] = agent alone, starved HeLa (antibodies 50 ug/ml, BGB324 0.2 uM, rhGas6 0.01 ug/ml)
[7] = rhGas6 0.01 ug/ml stimulation after 1 hour pre-incubation (antibodies 50 ug/ml, BGB324 0.2 uM), starved HeLa
[8] = rhAxl immobilized on Biacore sensor chip, 25° C., 1:1 Langmuir binding model

Row | Molecule | Inhibition of 1H12-stimulated pAkt ([1]; FIG. 22B) | Absorbance @ 450 nm (pAxl reading) [2, 6] | Absorbance @ 450 nm (pAxl reading) [2, 7] | Stimulation of Akt phosphorylation ([1]; FIG. 22A, Gas6 versus cross-linking 1H12) | Inhibition of A549 tumour growth [3] | Effect of Gas6 bound first on subsequent binding of the antibody [4] | Effect of Gas6 bound first on subsequent binding of the antibody ([4]; listed as 1H21L1) | KD lower than that of the chimeric antibody ([5]; comparison referring to Table 3) | Off-rate (koff) [5, 8] [s⁻¹] | On-rate (kon) [5, 8] [M⁻¹ s⁻¹]
1 | Nc1nc(Nc2ccc3c(c2)CC[C@@H](N2CCCC2)CC3)nn1-c1cc2c(nn1)-c1ccccc1CCC2 [BGB324, 1-(6,7-dihydro-5H-benzo[6,7]cyclohepta[1,2-c]pyridazin-3-yl)-N3-((7-(S)-pyrrolidin-1-yl)-6,7,8,9-tetrahydro-5H-benzo[7]annulene-2-yl)-1H-1,2,4-triazole-3,5-diamine, reference compound] | can be inhibited; also recorded: clear response | 0.039 | 0.045 | – | – | – | – | – | – | –
2 | B1 | – | 0.077 | – | weaker | – | – | – | – | – | –
3 | B2 | – | – | 0.055 | – | around 25% | inhibited | blocks binding | at least 50% | 0.000142 | 2.07e+06

— patent publication US11732048B2, “Anti-axl antagonistic antibodies” (BERGEN TEKNOLOGIOVERFØRING AS, priority 2016, dated 2023)
